In US20170112908A1:

molecular target: polyclonal antibodies in mouse sera specific for human PCSK9 aa 153-162 or aa 153-165; test: competition ELISA, 20 ug peptide with sera, plate coated with m2 (competitor)

| % Competition compared to the related control group | Binder |
| --- | --- |
| 30% | SQPWNLERIT |
| 79% | SIPWQLERITPPR |
| 71% | SIPWNDERIT |
| 73% | SIPWNAERIT |
| 74% | SIPWNLERITPAR |
| 51% | VIPWNLERIT |
| 79% | SIPWNFERITPPR |
| 61% | SVPWNLERIQ |
| 80% | SIPWNLERIA |
| 79% | SIPWNLERISPPR |
| 47% | VIPWNLERIQ |
| 7% | SIPSNLERIT |
| 59% | SVPWNLERIL |
| 53% | SQPWSLERTL |
| 54% | VIPWNLERLT |
| 73% | SVPWNLERTT |
| 0% | ITELSRWPNI |
| 75% | SIPWNLERITPVR |
| 73% | SIPWSLERIT |
| 0% | ERTKSDPGAQHREF |

| % Competition compared to the related control group | Binder |
| --- | --- |
| 53% | SIPWNLDRITPPR |
| 49% | VIPWNLERIL |
| 54% | SGPWNLERITPPR |
| 3% | SIPDNLERIT |
| 66% | SQPWNLERIQ |
| 70% | SIPWNLERITPNR |
| 48% | VQPWSLERTL |
| 66% | SIPWNLERITPPK |
| 74% | SVPWSLERLT |
| 73% | SIPWNLERITPTR |
| 62% | SITWNLERIT |
| 75% | SIPWALERIT |
| 52% | SIPWNGERIT |
| 65% | SIPWNLERITPPA |
| 69% | SQPWNLERIL |
| 0% | SIPGNLERIT |
| 88% | AIPWNLERIT |
| 69% | SQPWNLERLT |
| 78% | SIAWNLERIT |
| 77% | SIPWNLERAT |

| % Competition compared to the related control group | Binder |
| --- | --- |
| 62% | SVPWNLERIT |
| 8% | SIPANLERIT |
| 56% | SIPWNLERIL |
| 70% | SIPWNLERITAPR |
| 73% | SIPWNLERTT |
| 66% | SIPWNLERITPPS |
| 74% | SIPWDLERITPPR |
| 66% | VQPWSLERLL |
| 0% | SIPHNLERIT |
| 13% | SIPWNLARIT |
| 52% | TIPWNLERIT |
| 78% | SIPWNVERITPPR |
| 57% | SVPWNLERLT |
| 13% | SIPWNLEDIT |
| 78% | SIVWNLERITPPR |
| 69% | VIPWNLERTT |
| 11% | SVPWNLEKLT |
| 66% | SIPWNLERITPPL |
| 44% | SIPWSLERIQ |
